# Measurements published in US20140303084.
# Numbering of substitutions follows the chain as printed.
# Key:
# [1] = test system: T1, RRAPGKLTCLASYCWLFWTGIK(PEG2-Biotin)
# T1 sequence: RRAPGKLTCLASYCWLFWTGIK
# [2] = test system: T2, RRAPGKLTCLASYCWLF YTGIA HGHPMEHRKS
# T2 sequence: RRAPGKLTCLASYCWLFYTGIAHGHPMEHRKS
# [3] = test system: T3, KLTCAASYCWLF
# T3 sequence: KLTCAASYCWLF
# [4] = test system: T4, KLTCL-Abu-SYCWLF
# T4 sequence: KLTCLXSYCWLF
# [5] = test system: T5, KLLKLLLKLLLKLLK-k-MeLeu-TCLASYCWLF
# T5 sequence: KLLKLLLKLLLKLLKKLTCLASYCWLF
# [6] = test system: T6, Ac-K-k-MeLeu-TCLASYCWLF
# T6 sequence: KKLTCLASYCWLF
# [7] = test system: T7, SKQGRPISSDrRAAGKLTCLASYCWLFWTGIA
# T7 sequence: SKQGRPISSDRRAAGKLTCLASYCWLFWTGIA
# [8] = test system: T8, PRIRTVGPGSRSASGKLTCLASYCWLFWTFIA
# T8 sequence: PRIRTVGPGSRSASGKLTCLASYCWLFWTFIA
# [9] = test system: T9, compound 24
# T9 sequence: T7 sequence with S9P
# [10] = test system: T10, KRAPGKLQCLASYCWLFWTGIA
# T10 sequence: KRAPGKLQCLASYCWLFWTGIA
# [11] = test system: T11, KLTCLASYCWLF-COOH
# T11 sequence: KLTCLASYCWLF
# [12] = test system: T12, PRIRTVGPGSRSASGKLTCLASACWLFWTGIA
# T12 sequence: T8 sequence with Y23A, F30G
# [13] = test system: T13, KLTcLASYCWLF
# T13 sequence: KLTCLASYCWLF
# [14] = test system: T14, RRAPGKLQCLASYCWLFWTG-Nle-A
# T14 sequence: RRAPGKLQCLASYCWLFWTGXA
# [15] = test system: T15, TGS-KLTCLASYCWLF-APG
# T15 sequence: TGSKLTCLASYCWLFAPG
# [16] = test system: T16, RRAPGKLQCLASYCWLFWTG-(1-Nal)-A
# T16 sequence: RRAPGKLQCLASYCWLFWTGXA
# [17] = test system: T17, SGRGGKLTCQASFCQLFGNGLS
# T17 sequence: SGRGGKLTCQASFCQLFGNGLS
# [18] = test system: T18, SKQGRPISPArRAAGKLTCLASYCWLFWTGIA
# T18 sequence: T7 sequence with S9P, D10A
# [19] = test system: T19, (KLTCLASYCWLFG)2═N-O-(CH2)3-O-N═
# T19 sequence: KLTCLASYCWLFG
# [20] = test system: T20, Dpr-LTCLASYCWLF
# T20 sequence: XLTCLASYCWLF
# [21] = test system: T21, RRAPGKLTCLASYCWLF EPGIA QPYAKSPTRN
# T21 sequence: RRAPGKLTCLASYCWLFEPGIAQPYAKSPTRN
# [22] = test system: T22, ERYRLDMTCMASQCWQFPPAAG
# T22 sequence: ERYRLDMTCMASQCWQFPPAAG
# [23] = test system: T23, RRAPGKLTCLASYCWLFWTGI-MeAla
# T23 sequence: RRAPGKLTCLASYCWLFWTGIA
# [24] = test system: T24, PEG4-RRAPGKLTCLASYCWLFWTGIA
# T24 sequence: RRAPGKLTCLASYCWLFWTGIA
# [25] = test system: T25, HLFGADWLGA RTAPG KLTCLASYCWLFWTGIA
# T25 sequence: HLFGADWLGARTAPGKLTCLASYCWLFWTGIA
# [26] = test system: T26, rRAPGKLTCLASYCWLFWTGIA-PEG4-C(N-PEG5k maleimide)
# T26 sequence: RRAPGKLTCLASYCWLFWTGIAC
# [27] = test system: T27, RRAPGKLT-Asp-LASY-Lys-WLFWTGIA-COOH
# T27 sequence: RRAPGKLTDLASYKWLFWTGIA
# [28] = test system: T28, RRAPGKLTCLASYCWLFWTGIA-PEG4
# T28 sequence: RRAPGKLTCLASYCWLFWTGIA
# [29] = test system: T29, TALSRGLVTM RTAPD KLTCLASYCWLFWTGIA
# T29 sequence: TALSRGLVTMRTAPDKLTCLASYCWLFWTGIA
# [30] = test system: T30, QWQIAGQVLKRRAPA KLTCLASYCWLFWTGIA
# T30 sequence: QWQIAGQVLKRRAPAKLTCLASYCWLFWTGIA
# [31] = test system: T31, PRIRTSGPGSRSASGKLTCLASYCWLFWTGIA
# T31 sequence: T8 sequence with V6S, F30G
# [32] = test system: T32, C(PEG5K)GGGLVPRGGG-RRAPGKLT-Asp-LASY-Lys-WLFWTGIA
# T32 sequence: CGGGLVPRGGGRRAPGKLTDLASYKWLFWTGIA
# [33] = test system: T33, APGKLQCLASYCWLFWTGIA
# T33 sequence: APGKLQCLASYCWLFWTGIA
# [34] = test system: T34, RRAPGKLTCLASYCWLF WSGIA PQPPNMRPSV
# T34 sequence: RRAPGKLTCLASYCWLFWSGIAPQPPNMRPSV
# [35] = test system: T35, KLTCLASYCWLf
# T35 sequence: KLTCLASYCWLF
# [36] = test system: T36, RRAPGKLQCLASYCWLFWTKIA
# T36 sequence: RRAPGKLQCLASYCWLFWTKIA
# [37] = test system: T37, rrapgkltclasycwlfwtgia (inverso)
# T37 sequence: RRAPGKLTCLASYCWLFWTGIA
# [38] = test system: T38, RRAPGKLTCLASYAWLCWTGIA-COOH
# T38 sequence: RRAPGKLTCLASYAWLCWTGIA
# [39] = test system: T39, PRIRTVGPGSRSASGKLTCLASYCWLFWTLIA
# T39 sequence: T8 sequence with F30L
# [40] = test system: T40, RSTVSQMRCLASYCWLFPALVS
# T40 sequence: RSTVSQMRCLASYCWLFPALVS
# [41] = test system: T41, RRAPGKLT-Asp-LASY-Dap-WLFWTGIA-CONH2
# T41 sequence: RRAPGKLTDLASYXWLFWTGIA
# [42] = test system: T42, RRAPGKLTCLASYCWLF QTGWA YWGYRQHPGS
# T42 sequence: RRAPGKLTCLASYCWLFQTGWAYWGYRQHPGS
# [43] = test system: T43, RRAPGKLT-Asp-LASY-Dap-WLFWTGIA-COOH
# T43 sequence: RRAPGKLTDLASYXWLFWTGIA
# [44] = test system: T44, RRRRRKLTCLASYCWLFRRRRR
# T44 sequence: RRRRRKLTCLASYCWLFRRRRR
# [45] = test system: T45, SRIRTVGPGSRSASGKLTCLASYCWLFWTGIA
# T45 sequence: T8 sequence with P1S, F30G
# [46] = test system: T46, PTDTGPVISG LRAPG KLTCLASYCWLFWTGIA
# T46 sequence: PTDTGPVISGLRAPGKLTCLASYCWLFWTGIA
# [47] = test system: T47, RRAPGKLQCLASYCWLFWAGIA
# T47 sequence: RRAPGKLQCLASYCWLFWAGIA
# [48] = test system: T48, PRISTVGPGSRSASGKLTCLASYCWLFWTGIA
# T48 sequence: T8 sequence with R4S, F30G
substance,measurement,setting,value
human Factor IXa,"Vmax, FXa generation assay; (++) means 1-2",[1],(++)
same,"Vmax, FXa generation assay",[2],> 3
same,"Vmax, FXa generation assay; (++) means 1-2",[3],(++)
same,"Vmax, FXa generation assay",[4],> 2
same,"Vmax, FXa generation assay",[5],> 2
same,"Vmax, FXa generation assay",[6],> 2
same,"Vmax, FXa generation assay",[7],> 3
same,"Vmax, FXa generation assay",[8],> 2
same,"Vmax, FXa generation assay with hFIXa",[9],> 3
same,"Vmax, FXa generation assay",[10],> 2
same,"Vmax, FXa generation assay; (++) means 1-2",[11],(++)
same,"Vmax, FXa generation assay; (++) means 1-2",[12],(++)
same,"Vmax, FXa generation assay",[13],> 2
same,"Vmax, FXa generation assay",[14],> 2
same,"Vmax, FXa generation assay",[15],> 2
same,"Vmax, FXa generation assay",[16],> 2
same,"Vmax, FXa generation assay; (++) means 1-2",[17],(++)
same,"Vmax, FXa generation assay",[18],> 3
same,"Vmax, FXa generation assay",[19],> 3
same,"Vmax, FXa generation assay",[20],> 2
same,"Vmax, FXa generation assay",[21],> 2
same,"Vmax, FXa generation assay; (++) means 1-2",[22],(++)
same,"Vmax, FXa generation assay; (++) means 1-2",[23],(++)
same,"Vmax, FXa generation assay",[24],> 3
same,"Vmax, FXa generation assay; (++) means 1-2",[25],(++)
same,"Vmax, FXa generation assay",[26],> 2
same,"Vmax, FXa generation assay; (++) means 1-2",[27],(++)
same,"Vmax, FXa generation assay",[28],> 2
same,"Vmax, FXa generation assay; (++) means 1-2",[29],(++)
same,"Vmax, FXa generation assay",[30],> 2
same,"Vmax, FXa generation assay",[31],> 3
same,"Vmax, FXa generation assay; (++) means 1-2",[32],(++)
same,"Vmax, FXa generation assay; (++) means 1-2",[33],(++)
same,"Vmax, FXa generation assay",[34],> 3
same,"Vmax, FXa generation assay",[35],> 3
same,"Vmax, FXa generation assay; (++) means 1-2",[36],(++)
same,"Vmax, FXa generation assay",[37],> 2
same,"Vmax, FXa generation assay",[38],> 0.5
same,"Vmax, FXa generation assay",[39],> 3
same,"Vmax, FXa generation assay; (++) means 1-2",[40],(++)
same,"Vmax, FXa generation assay",[41],> 2
same,"Vmax, FXa generation assay",[42],> 2
same,"Vmax, FXa generation assay; (++) means 1-2",[43],(++)
same,"Vmax, FXa generation assay",[44],> 2
same,"Vmax, FXa generation assay",[45],> 3
same,"Vmax, FXa generation assay; (++) means 1-2",[46],(++)
same,"Vmax, FXa generation assay",[47],> 3
same,"Vmax, FXa generation assay",[48],> 3
